This passage reports ligation selection enrichment results from the supplement of paper PMC10219994.

± gives the standard deviation of the averaged measurements.

Sequences and labels used below:
B1: library; a variant is named by its letters at N, in order (parent)
chain: GAGACCGCAACTGAAAAGTTGTGGNNNNNATAGTGAGTCGCTGCCTGCAAAGACACAACT

The variants in the series derive from B1. The experiment in a line: ligation selection enrichment (abundance after / before one-round selection) (fold); higher = more template-directed ligation activity. The note with it: with T7Psub CACGGAUGCUAAUACGACUCACUAUA; MgCl2 25 mM; 42 °C; 4 h; pH 8.5. Summed up: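 In each of two independent experiments, 6 μM RNA substrate was reacted for 4 h at 42 °C with 0.75 μM of a T7-transcribed RNA ligase library randomized at five core positions, in buffer containing 50 mM EPPS pH 8.5 and 25 mM MgCl2. Only reads scoring ≥30 in quality at all randomized positions were counted after MiSeq sequencing. Each enrichment value is the ratio of abundance after ligation to abundance before ligation.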
Take GAGACCGCAACTGAAAAGTTGTGGCTCCAATAGTGAGTCGCTGCCTGCAAAGACACAACT [CTCCA]: the ligation selection enrichment was determined as 0.1489 ± 0.00039.

Consider GAGACCGCAACTGAAAAGTTGTGGCTCCTATAGTGAGTCGCTGCCTGCAAAGACACAACT [CTCCT], for which the ligation selection enrichment turned out to be 0.503 ± 0.14. Under GAGACCGCAACTGAAAAGTTGTGGGTCGTATAGTGAGTCGCTGCCTGCAAAGACACAACT [GTCGT] stands 0.297 ± 0.13; under GAGACCGCAACTGAAAAGTTGTGGGTCGAATAGTGAGTCGCTGCCTGCAAAGACACAACT [GTCGA], 2.56 ± 0.37; under GAGACCGCAACTGAAAAGTTGTGGGTCGGATAGTGAGTCGCTGCCTGCAAAGACACAACT [GTCGG], 0.443 ± 0.054. The value for GAGACCGCAACTGAAAAGTTGTGGGTCGCATAGTGAGTCGCTGCCTGCAAAGACACAACT [GTCGC] was 0.371 ± 0.033; that for GAGACCGCAACTGAAAAGTTGTGGATCGTATAGTGAGTCGCTGCCTGCAAAGACACAACT [ATCGT] was 0.723 ± 0.28; that for GAGACCGCAACTGAAAAGTTGTGGATCGCATAGTGAGTCGCTGCCTGCAAAGACACAACT [ATCGC] was 0.48 ± 0.024. Under GAGACCGCAACTGAAAAGTTGTGGATCGGATAGTGAGTCGCTGCCTGCAAAGACACAACT [ATCGG] stands 0.801 ± 0.021; under GAGACCGCAACTGAAAAGTTGTGGATCGAATAGTGAGTCGCTGCCTGCAAAGACACAACT [ATCGA], 3.45 ± 0.064; under GAGACCGCAACTGAAAAGTTGTGGATGATATAGTGAGTCGCTGCCTGCAAAGACACAACT [ATGAT], 34.6 ± 8.1. With GAGACCGCAACTGAAAAGTTGTGGATGACATAGTGAGTCGCTGCCTGCAAAGACACAACT [ATGAC], the ligation selection enrichment came out at 1.69 ± 0.044. Regarding GAGACCGCAACTGAAAAGTTGTGGATGAGATAGTGAGTCGCTGCCTGCAAAGACACAACT [ATGAG], the ligation selection enrichment was 0.834 ± 0.057.

For GAGACCGCAACTGAAAAGTTGTGGATGAAATAGTGAGTCGCTGCCTGCAAAGACACAACT [ATGAA], the ligation selection enrichment came out at 0.823 ± 0.12. The value for GAGACCGCAACTGAAAAGTTGTGGGTGGCATAGTGAGTCGCTGCCTGCAAAGACACAACT [GTGGC] was 0.18 ± 0.0046; that for GAGACCGCAACTGAAAAGTTGTGGGTGGAATAGTGAGTCGCTGCCTGCAAAGACACAACT [GTGGA] was 1.76 ± 0.068. The value for GAGACCGCAACTGAAAAGTTGTGGGTGGGATAGTGAGTCGCTGCCTGCAAAGACACAACT [GTGGG] was 0.31 ± 0.013.

Consider GAGACCGCAACTGAAAAGTTGTGGCTGGCATAGTGAGTCGCTGCCTGCAAAGACACAACT [CTGGC], for which the ligation selection enrichment was 0.135 ± 0.021. Under GAGACCGCAACTGAAAAGTTGTGGCTGGAATAGTGAGTCGCTGCCTGCAAAGACACAACT [CTGGA] stands 0.282 ± 0.086; under GAGACCGCAACTGAAAAGTTGTGGATGGCATAGTGAGTCGCTGCCTGCAAAGACACAACT [ATGGC], 0.128 ± 0.0069; under GAGACCGCAACTGAAAAGTTGTGGATGGAATAGTGAGTCGCTGCCTGCAAAGACACAACT [ATGGA], 0.662 ± 0.029. As for GAGACCGCAACTGAAAAGTTGTGGCTGAAATAGTGAGTCGCTGCCTGCAAAGACACAACT [CTGAA], the ligation selection enrichment was 0.424 ± 0.0081. As for GAGACCGCAACTGAAAAGTTGTGGCTGATATAGTGAGTCGCTGCCTGCAAAGACACAACT [CTGAT], the ligation selection enrichment was 22 ± 5.4. Take GAGACCGCAACTGAAAAGTTGTGGCTGACATAGTGAGTCGCTGCCTGCAAAGACACAACT [CTGAC]: the ligation selection enrichment was found to be 1.07 ± 0.085. For GAGACCGCAACTGAAAAGTTGTGGCTGAGATAGTGAGTCGCTGCCTGCAAAGACACAACT [CTGAG], the ligation selection enrichment was found to be 0.724 ± 0.054. Under GAGACCGCAACTGAAAAGTTGTGGCTGCGATAGTGAGTCGCTGCCTGCAAAGACACAACT [CTGCG] stands 0.5 ± 0.22; under GAGACCGCAACTGAAAAGTTGTGGCTGCTATAGTGAGTCGCTGCCTGCAAAGACACAACT [CTGCT], 0.833 ± 0.12. Under GAGACCGCAACTGAAAAGTTGTGGCTGCAATAGTGAGTCGCTGCCTGCAAAGACACAACT [CTGCA] stands 0.147 ± 0.0049. Under GAGACCGCAACTGAAAAGTTGTGGCTGCCATAGTGAGTCGCTGCCTGCAAAGACACAACT [CTGCC] stands 0.138 ± 0.05. On to GAGACCGCAACTGAAAAGTTGTGGTTGCAATAGTGAGTCGCTGCCTGCAAAGACACAACT [TTGCA], for which the ligation selection enrichment came out at 0.683 ± 0.015. In the case of GAGACCGCAACTGAAAAGTTGTGGTTGCTATAGTGAGTCGCTGCCTGCAAAGACACAACT [TTGCT], the ligation selection enrichment amounted to 0.947 ± 0.32. As for GAGACCGCAACTGAAAAGTTGTGGTTGCGATAGTGAGTCGCTGCCTGCAAAGACACAACT [TTGCG], the ligation selection enrichment came to 0.391 ± 0.012. For GAGACCGCAACTGAAAAGTTGTGGTTGCCATAGTGAGTCGCTGCCTGCAAAGACACAACT [TTGCC], the ligation selection enrichment turned out to be 0.231 ± 0.025. In the case of GAGACCGCAACTGAAAAGTTGTGGCTCGAATAGTGAGTCGCTGCCTGCAAAGACACAACT [CTCGA], the ligation selection enrichment worked out at 0.501 ± 0.012.

On to GAGACCGCAACTGAAAAGTTGTGGCTCGTATAGTGAGTCGCTGCCTGCAAAGACACAACT [CTCGT], for which the ligation selection enrichment is 0.216 ± 0.13. Under GAGACCGCAACTGAAAAGTTGTGGCTCGGATAGTGAGTCGCTGCCTGCAAAGACACAACT [CTCGG] stands 0.161 ± 0.036; under GAGACCGCAACTGAAAAGTTGTGGCTCGCATAGTGAGTCGCTGCCTGCAAAGACACAACT [CTCGC], 0.141 ± 0.0066; under GAGACCGCAACTGAAAAGTTGTGGTTCGAATAGTGAGTCGCTGCCTGCAAAGACACAACT [TTCGA], 2.1 ± 0.11. The value for GAGACCGCAACTGAAAAGTTGTGGTTCGTATAGTGAGTCGCTGCCTGCAAAGACACAACT [TTCGT] was 0.267 ± 0.029.

For GAGACCGCAACTGAAAAGTTGTGGTTCGCATAGTGAGTCGCTGCCTGCAAAGACACAACT [TTCGC], the ligation selection enrichment came to 0.331 ± 0.0077. Turning to GAGACCGCAACTGAAAAGTTGTGGTTCGGATAGTGAGTCGCTGCCTGCAAAGACACAACT [TTCGG], the ligation selection enrichment came out at 0.397 ± 0.024. The value for GAGACCGCAACTGAAAAGTTGTGGTTGAGATAGTGAGTCGCTGCCTGCAAAGACACAACT [TTGAG] was 0.82 ± 0.12.

As to GAGACCGCAACTGAAAAGTTGTGGTTGATATAGTGAGTCGCTGCCTGCAAAGACACAACT [TTGAT], the ligation selection enrichment is 29.9 ± 7.4. The value for GAGACCGCAACTGAAAAGTTGTGGTTGAAATAGTGAGTCGCTGCCTGCAAAGACACAACT [TTGAA] was 1.56 ± 0.22; that for GAGACCGCAACTGAAAAGTTGTGGTTGACATAGTGAGTCGCTGCCTGCAAAGACACAACT [TTGAC] was 3.32 ± 0.24.
